These results are taken from patent US20250059280A1 (AbbVie / Abbott, published 2025).

Assay [1] has as its target T1, human programmed death receptor 1 (PD-1) (human, UniProt Q15116 25-288).
T1 construct: whole, on cells; Endogenous PD-1 on T cells of donors or study subjects; also called PD-1 receptor
Kind of assay: ratio of in vitro PD-1 receptor saturation EC50 values on CD8+ T cells, reference mAb2.

Assay [2] concerns the target T1, human programmed death receptor 1 (PD-1). Kind of assay: in vitro PD-1 receptor saturation on CD8+ T cells, flow cytometry, whole blood, Emax model fit.

T1 sequence (Q15116 25-288): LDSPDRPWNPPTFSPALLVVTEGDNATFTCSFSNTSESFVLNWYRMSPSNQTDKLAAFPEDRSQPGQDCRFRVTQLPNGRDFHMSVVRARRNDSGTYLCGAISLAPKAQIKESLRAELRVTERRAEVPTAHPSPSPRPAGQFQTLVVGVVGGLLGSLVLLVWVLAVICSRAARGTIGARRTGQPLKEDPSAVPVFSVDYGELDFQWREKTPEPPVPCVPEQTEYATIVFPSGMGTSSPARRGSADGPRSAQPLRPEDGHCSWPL

B1: cemiplimab (Catalog No. A2022, Selleckchem) (antibody, V domains shown)
VH: EVQLLESGGVLVQPGGSLRLSCAASGFTFSNFGMTWVRQAPGKGLEWVSGISGGGRDTYFADSVKGRFTISRDNSKNTLYLQMNSLKGEDTAVYYCVKWGNIYFDYWGQGTLVTVSS
VL: DIQMTQSPSSLSASVGDSITITCRASLSINTFLNWYQQKPGKAPNLLIYAASSLHGGVPSRFSGSGSGTDFTLTIRTLQPEDFATYYCQQSSNTPFTFGPGTVVDFR
For the molecule B1, the “Scaling Factor (ratio of EC50 of PD-1 saturation to the EC50 of mAb2)” value in assay [1] came to 2.67. It took 0.366 µg/mL to reach the 95% level in assay [2] (EC95).
